{"source": "patent US20160152729A1", "about": "(Novo Nordisk, published 2016)", "binders": {"B1": {"name": "mAb 0294 (antibody, human IgG4 S228P, kappa, V domains shown)", "VH": "QVQLKQSGPGLVQPSQSLSITCTVSGFSLTNYGVHWVRQSPGKGLEWLAVIWRGGSIDYNAAFMSRLSITKDNSKSQVFFKMNSLQADDTAIYYCAKNSHGNYVGYAMDYWGQGTSVTVSS", "VL": "GIVMTQSQKFMSTTVGDRVSITCKASQSVGPAVAWYQQKPGQSPKLLIYSASNRYTGVPDRFTGSGSGADFTLTISNLHSEDLADYFCQQYTSYPTFGGGTKLEIKR", "notes": "Murine-human chimera of mAb 2F22, human IgG4 (S241P) constant region, human kappa; also called chimeric mAb 2F22"}}, "key": {"[1]": {"biological_target": "T1, human TFPIα (human, UniProt P10646 29-304)", "T1 construct": "recombinant full-length TFPIα in the assays; also called TFPI alpha; full-length TFPIα", "test": "SPR Biacore T200; antibody captured on anti-human IgG Fc; TFPI as analyte; 1:1 model", "method": "(§1) Binding interaction data were obtained by means of Surface Plasmon Resonance in a Biacore T200 instrument. […] chip (GE Healthcare) in flow-cells 1-4 using the amine coupling protocol available with the Biacore T-200 control software version 2.0 (GE Healthcare) and the reagents provided with the Amine Coupling Kit (GE Healthcare). […] Different concentrations of human TFPIα or TFPI (1-79) were tested by diluting the sample in running buffer (10 mM HEPES, pH 7.4, 300 mM NaCl, 5 mM CaCl₂, 0.05% Surfactant P20, 1 mg/ml BSA). Each sample was assayed using 300 seconds of contact time followed by 420-600 seconds of dissociation time at 30 μl/min flow rate. A buffer blank was also assayed. The sensor surface was regenerated with 10 mM Glycine pH 1.7 either for 180 sec at 30 μl/min flow rate or with two cycles each of 30 seconds at 30 μl/min flow rate.\n(§2) The Biacore T200 Evaluation software (version 2.0) was used to analyse the data. Determination of binding constants (kₐ, kd, KD) was obtained assuming a 1:1 interaction of TFPI and the monoclonal antibody of interest."}, "[2]": {"biological_target": "T2, human TFPI (1-79) (human, UniProt P10646 29-107)", "T2 construct": "Acidic N-terminal region and KPI-1 domain", "test": "SPR Biacore T200; antibody captured on anti-human IgG Fc; TFPI as analyte; 1:1 model", "method": "as §1, §2"}}}
{"binder": "B1", "values": [{"measurement": "Kd", "setting": "[1]", "result": 0.46, "unit": "nM"}, {"measurement": "Kd", "setting": "[2]", "result": 0.27, "unit": "nM"}]}
